These results are taken from US20110200622A1 (SAMSUNG ELECTRONICS, published 2011).

The target of this test is T1, human VEGF (R&D systems, Inc.; catalog #293-VE) (human, UniProt P15692-4 27-191).
T1 construct: Bought protein; It was biotinylated for bead panning and coated directly on the plate for the ELISAs; also called human vascular endothelial growth factor; human-derived vascular endothelial growth factor
The test can be described thus: phage ELISA on plate-immobilised human VEGF, anti-M13-HRP, OD450. The procedure: E. coli XL1-Blue was infected with each of the phage clones obtained from the biopanning process, and the cells were cultured at 37° C. for 14 hours to obtain a phage solution. The VEGF was added to a 96-well microtiter plate (Nunc), and maintained at 4° C. for 18 hours to immobilize the VEGF on a surface of the plate. The plate with the immobilized VEGF was blocked with skim milk at room temperature for 1 hour, and 100 μl of the phage solution was added to the plate. Then, the phage and the VEGF were incubated together at room temperature for two hours, and washed using a PBS solution containing 0.1% Tween-20. Subsequently, an anti-M13 antibody (GE Healthcare) specifically reactive to the phage and conjugated with horseradish peroxidase (HRP) was added to the resultant product and incubated with each other at room temperature for 1 hour. Then, the plate was washed twice with a PBS solution containing 0.1% Tween-20. Lastly, 100 μl of trimethylbenzidine (TMB) (SIGMA), an HRP substrate, was added to each well of the plate to induce a color reaction. The reaction was stopped by adding 50 μl of 5N H₂SO₄ solution. The OD₄₅₀ value was read on a plate reader (Molecular Devices). […] To determine the base sequence of polynucleotides encoding the polypeptides specifically binding to the VEGF obtained from single clones of the phages, a colony polymerase chain reaction (PCR) was performed using two different primer sets (primer set SEQ ID NOS: 47 and 48; and primer set SEQ ID NOS: 49 and 50). Each primer set was used according to the origin of the Dyax polypeptide library. […] The PCR was performed using a GeneAmp PCR system 9700 (Applied Biosystem), with the following PCR conditions: 30 cycles of 94° C. for 5 minutes, 94° C. for 1 minute, 60° C. for 1 minute, and 72° C. for 1.5 minutes; 72° C. for 10 minutes; and cooling to 4° C. Subsequently, polynucleotide fragments obtained by the PCR reaction were washed and then sequenced (Solgent).
For orientation: In an ELISA, binding on a coated surface is turned into a signal by an enzyme label.

T1 sequence (P15692 other isoform, or with tags, fused parts or gaps limits assumed): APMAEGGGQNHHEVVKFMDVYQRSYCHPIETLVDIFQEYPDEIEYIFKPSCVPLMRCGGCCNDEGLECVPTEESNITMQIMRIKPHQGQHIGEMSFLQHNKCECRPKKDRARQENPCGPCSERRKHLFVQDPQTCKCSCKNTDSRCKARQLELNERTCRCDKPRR

Consider RLFEMYPSLE (peptide, not shown: large carriers, Tested as a phage clone in phage ELISA) [polypeptide clone number 69, displayed on phage], for which the binding result is “binds”.

RMGPFGTTH (peptide, not shown: large carriers, Tested as a phage clone in phage ELISA) [polypeptide clone number 40, displayed on phage]: the binding result was “binds”.

On to FDKYYRDWFI (peptide, not shown: large carriers, Tested as a phage clone in phage ELISA) [polypeptide clone number 83, displayed on phage], for which the binding result was “binds”.

Take PIGQRWNRLE (peptide, not shown: large carriers, Tested as a phage clone in phage ELISA) [polypeptide clone number 68, displayed on phage]: the binding result is reported as “binds”.

Regarding QRDEMYPHLN (peptide, not shown: large carriers, Tested as a phage clone in phage ELISA) [polypeptide clone number 76, displayed on phage], the binding result was “binds”.

Consider PRFEMWHDDK (peptide, not shown: large carriers, Tested as a phage clone in phage ELISA) [polypeptide clone number 55, displayed on phage], for which the binding result is “binds”.

In the case of EDYRFYSVW (peptide, not shown: large carriers, Tested as a phage clone in phage ELISA) [polypeptide clone number 13, displayed on phage], the binding result is given as “binds”.

YGYPWSGT (peptide, not shown: large carriers, Tested as a phage clone in phage ELISA) [polypeptide clone number 34, displayed on phage]: the binding result was “binds”.

In the case of MHRPWPWDMF (peptide, not shown: large carriers, Tested as a phage clone in phage ELISA) [polypeptide clone number 56, displayed on phage], the binding result was “binds”.

For HDYAFYSAW (peptide, not shown: large carriers, Tested as a phage clone in phage ELISA) [polypeptide clone number 44, displayed on phage], the binding result is “binds”.

Take PRLSMWQNME (peptide, not shown: large carriers, Tested as a phage clone in phage ELISA) [polypeptide clone number 63, displayed on phage]: the binding result is “binds”.

In the case of DFLKMYRDEK (peptide, not shown: large carriers, Tested as a phage clone in phage ELISA) [polypeptide clone number 52, displayed on phage], the binding result was “binds”.

For DRFSMWKNLE (peptide, not shown: large carriers, Tested as a phage clone in phage ELISA) [polypeptide clone number 66, displayed on phage], the binding result is recorded as “binds”.

As for ERTEMFPSAS (peptide, not shown: large carriers, Tested as a phage clone in phage ELISA) [polypeptide clone number 73, displayed on phage], the binding result was “binds”.

Regarding DRYSQYQSPM (peptide, not shown: large carriers, Tested as a phage clone in phage ELISA) [polypeptide clone number 16, displayed on phage], the binding result is given as “binds”.

On to YRGVWGGYF (peptide, not shown: large carriers, Tested as a phage clone in phage ELISA) [polypeptide clone number 42, displayed on phage], for which the binding result is “binds”.

With PHQEMWQFES (peptide, not shown: large carriers, Tested as a phage clone in phage ELISA) [polypeptide clone number 78, displayed on phage], the binding result is “binds”.

QRDQQYKHMY (peptide, not shown: large carriers, Tested as a phage clone in phage ELISA) [polypeptide clone number 50, displayed on phage]: the binding result is “binds”.

For QMDRMFPHVG (peptide, not shown: large carriers, Tested as a phage clone in phage ELISA) [polypeptide clone number 65, displayed on phage], the binding result is given as “binds”.

Take MKSAMYHDIR (peptide, not shown: large carriers, Tested as a phage clone in phage ELISA) [polypeptide clone number 82, displayed on phage]: the binding result is given as “binds”.

For the molecule SRFEMWNDIS (peptide, not shown: large carriers, Tested as a phage clone in phage ELISA) [polypeptide clone number 70, displayed on phage], the binding result is given as “binds”.
